Experimental data from paper PMC3690482 (Molecular and cellular endocrinology, 2013).

Biological target: MET (mouse (endogenous in NLT), UniProt P16056 25-1379)
Experiment: co-IP

AXL in the MET immunoprecipitate, fold of input lysate: 0.6 fold
B1: AXL (receptor, mouse (endogenous in NLT), UniProt Q00993 19-888, looked up)
chain: AHKDTQTEAGSPFVGNPGNITGARGLTGTLRCELQVQGEPPEVVWLRDGQILELADNTQTQVPLGEDWQDEWKVVSQLRISALQLSDAGEYQCMVHLEGRTFVSQPGFVGLEGLPYFLEEPEDKAVPANTPFNLSCQAQGPPEPVTLLWLQDAVPLAPVTGHSSQHSLQTPGLNKTSSFSCEAHNAKGVTTSRTATITVLPQRPHHLHVVSRQPTELEVAWTPGLSGIYPLTHCNLQAVLSDDGVGIWLGKSDPPEDPLTLQVSVPPHQLRLEKLLPHTPYHIRISCSSSQGPSPWTHWLPVETTEGVPLGPPENVSAMRNGSQVLVRWQEPRVPLQGTLLGYRLAYRGQDTPEVLMDIGLTREVTLELRGDRPVANLTVSVTAYTSAGDGPWSLPVPLEPWRPGQGQPLHHLVSEPPPRAFSWPWWYVLLGALVAAACVLILALFLVHRRKKETRYGEVFEPTVERGELVVRYRVRKSYSRRTTEATLNSLGISEELKEKLRDVMVDRHKVALGKTLGEGEFGAVMEGQLNQDDSILKVAVKTMKIAICTRSELEDFLSEAVCMKEFDHPNVMRLIGVCFQGSDREGFPEPVVILPFMKHGDLHSFLLYSRLGDQPVFLPTQMLVKFMADIASGMEYLSTKRFIHRDLAARNCMLNENMSVCVADFGLSKKIYNGDYYRQGRIAKMPVKWIAIESLADRVYTSKSDVWSFGVTMWEIATRGQTPYPGVENSEIYDYLRQGNRLKQPVDCLDGLYALMSRCWELNPRDRPSFAELREDLENTLKALPPAQEPDEILYVNMDEGGSHLEPRGAAGGADPPTQPDPKDSCSCLTAADVHSAGRYVLCPSTAPGPTLSADRGCPAPPGQEDGA
